The values that follow come from article PMC7486707 (Proceedings of the National Academy of Sciences of the …, 2020).

This assay deals with T1, STM-His6 (SHOOT …) (Arabidopsis thaliana, UniProt Q38874 1-382).
T1 sequence (looked up): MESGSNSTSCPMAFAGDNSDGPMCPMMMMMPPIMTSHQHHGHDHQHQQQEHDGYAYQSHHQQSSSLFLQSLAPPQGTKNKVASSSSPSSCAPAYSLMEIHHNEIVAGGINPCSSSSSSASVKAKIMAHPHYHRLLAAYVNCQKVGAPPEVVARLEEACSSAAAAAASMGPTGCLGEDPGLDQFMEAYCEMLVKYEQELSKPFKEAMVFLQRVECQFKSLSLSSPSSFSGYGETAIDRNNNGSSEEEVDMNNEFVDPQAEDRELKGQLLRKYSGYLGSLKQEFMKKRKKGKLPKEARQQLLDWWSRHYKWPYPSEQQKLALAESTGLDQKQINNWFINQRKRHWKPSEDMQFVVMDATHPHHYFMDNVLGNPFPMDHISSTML
The experiment in a line: pull-down.

B1: GST-WUS (WUSCHEL) (natural protein, Arabidopsis thaliana, UniProt Q9SB92 1-292, looked up)
chain: MEPPQHQHHHHQADQESGNNNNNKSGSGGYTCRQTSTRWTPTTEQIKILKELYYNNAIRSPTADQIQKITARLRQFGKIEGKNVFYWFQNHKARERQKKRFNGTNMTTPSSSPNSVMMAANDHYHPLLHHHHGVPMQRPANSVNVKLNQDHHLYHHNKPYPSFNNGNLNHASSGTECGVVNASNGYMSSHVYGSMEQDCSMNYNNVGGGWANMDHHYSSAPYNFFDRAKPLFGLEGHQEEEECGGDAYLEHRRTLPLFPMHGEDHINGGSGAIWKYGQSEVRPCASLELRLN
In the case of B1, the binding result is reported as “binds”.
